The assay deals with T1, myc-NIK (wild-type NIK fused N-terminally to a six myc tag) (UniProt Q99558 1-947).
T1 construct: pCS3MTNIK expression vector, co-transfected into HEK-293T cells; also called NF-κB-inducing kinase; MAP3K14; not shown: six myc tag at the N-terminus
Put plainly: co-immunoprecipitation from HEK-293T lysate: NIK immunoprecipitated with anti-NIK antibody, co-precipitated SIVA detected by Western blot. The method, then: FLAG-SIVA2 or FLAG-SIVA3 expression vectors were co-transfected with NIK expression vector into HEK-293T cells. 24 h later, cells were lysed, NIK was immunoprecipitated with anti-NIK antibody and co-precipitated SIVA was monitored by western Blotting. WB=Western Blot, TLC=Total cell lysate, IP=immunoprecipitation.
Next, it was explored whether SIVA3 binds NIK. FLAG-SIVA2 (8 μg) or FLAG-SIVA3 (8 μg) were co-transfected with myc-NIK (7 μg) into HEK-293T cells (1.5×10⁶ seeded in 90 mm plate, transfected using calcium phosphate method). 24 h later, cells were lysed, NIK was immunoprecipitated with anti-NIK antibody and co-precipitated SIVA was detected by western Blotting.
On the technique in general: A western blot detects proteins with antibodies after separation by electrophoresis.

T1 sequence (Q99558 whole entry, the tested form may be a part): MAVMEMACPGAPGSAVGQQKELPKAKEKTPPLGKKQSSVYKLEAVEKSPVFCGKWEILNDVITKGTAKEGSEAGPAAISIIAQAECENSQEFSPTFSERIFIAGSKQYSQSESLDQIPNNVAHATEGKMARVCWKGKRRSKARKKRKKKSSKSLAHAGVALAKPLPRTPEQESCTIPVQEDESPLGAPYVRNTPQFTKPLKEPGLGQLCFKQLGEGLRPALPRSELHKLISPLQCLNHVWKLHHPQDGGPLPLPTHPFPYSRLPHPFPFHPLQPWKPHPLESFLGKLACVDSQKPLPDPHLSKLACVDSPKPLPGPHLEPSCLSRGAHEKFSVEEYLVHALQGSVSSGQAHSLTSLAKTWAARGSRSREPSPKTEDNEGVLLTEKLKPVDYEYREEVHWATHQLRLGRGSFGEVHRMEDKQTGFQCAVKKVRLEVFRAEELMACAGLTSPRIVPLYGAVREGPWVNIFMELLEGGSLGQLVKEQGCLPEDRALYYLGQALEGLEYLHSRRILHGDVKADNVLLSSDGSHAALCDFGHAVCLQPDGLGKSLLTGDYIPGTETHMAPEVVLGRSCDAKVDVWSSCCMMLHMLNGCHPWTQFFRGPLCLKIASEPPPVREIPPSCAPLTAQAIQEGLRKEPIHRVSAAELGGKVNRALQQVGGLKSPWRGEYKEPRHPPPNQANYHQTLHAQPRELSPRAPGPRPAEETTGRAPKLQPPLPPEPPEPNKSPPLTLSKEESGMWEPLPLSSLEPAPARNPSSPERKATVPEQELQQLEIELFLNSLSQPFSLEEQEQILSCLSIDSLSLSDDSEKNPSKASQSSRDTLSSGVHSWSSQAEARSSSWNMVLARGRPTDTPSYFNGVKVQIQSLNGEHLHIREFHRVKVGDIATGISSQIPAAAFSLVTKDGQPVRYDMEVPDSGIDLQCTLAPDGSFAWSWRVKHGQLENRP

B1: FLAG-SIVA3 (other)
chain: MPKRSCPFADVAPLQLKVRVSQRELSRGVCAERYSQEVFAAVTCTRKCCAPAVPCSRPEAGSSRLPSPGATPCMAAFPGRALGVHTELWGRREGCLLHVLFCILMTE
notes: Expressed from pcDNA3 in HEK-293T cells and tested in lysate by co-immunoprecipitation; not shown: FLAG tag
As to B1, the binding result is “no binding”.
